Laboratory results as given in the supplement of paper PMC12042874.
± gives the uncertainty stated by the source.

Assay: amyloid nucleation score (Sup35N fusion, yeast selection) (log enrichment); library NNK2; higher = more nucleation; inactive = no reads after selection
Procedure, shortened: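 Yeast lacking psi expressed peptides of 20 random codons fused to Sup35N, received 100 μM copper sulfate for 24 hours, and were then grown for 7 days at 30°C on medium lacking adenine and uracil. Illumina sequencing of input and output plasmid inserts provided the reads. Nucleation scores are DiMSum log enrichments of output over input, centred on the mode of non-aggregating sequences. Any sequence with under 100 input reads was excluded.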

| Substance | amyloid nucleation score |
| --- | --- |
| LGSCHAMRLIEDGSGMEWMF | 0.645 ± 0.37 |
| MAYGGPFSVLSSWDDADNGY | -0.05 ± 0.5 |
| NNRVVFTGRFL | -1.45 ± 0.47 |
| RESTTRMSAGNVYRVTHKHS | 0.224 ± 0.4 |
| FYVLFGSF | -2.07 ± 0.76 |
| RSVSNDKYVFWFLRLVDVKA | 0.225 ± 0.26 |
| RWCGIGRLGVSNGIVPCWEM | 0.647 ± 0.17 |
| FSFLGDPKNERTVSWVMGHR | 0.478 ± 0.32 |
| FLFGLSIMLLNKEPGRCFRG | 5.23 ± 0.097 |
| WDGNYSSKVCFTQLRMSWCL | 1.75 ± 0.27 |
| YALRLLHGSYNSNT | 3.31 ± 0.084 |
| VTNCNPDRW | -0.149 ± 0.63 |
| FGMNDRRH | -0.381 ± 0.79 |
| KTQKLLGRAWRNYGYGCCVR | -0.487 ± 1.1 |
| RKCLGLRSYATTFRVDQHSC | 0.266 ± 0.3 |
| YHYNNNRWVTGHFQWIWSLY | 6.453 ± 0.029 |
| NRSGEYRPLMMCVLGPLSTD | 0.687 ± 0.24 |
| VYMGSDL | 6.07 ± 0.072 |
| RSVSGMVWE | 0.21 ± 0.74 |
| RRLFSVKIAYLCDT | 2.63 ± 0.2 |
| VVMHQSAVCYEHEMTLVRRF | 0.027 ± 1 |
| NICITHPH | 0.299 ± 0.64 |
| DMLEKKE | 5.921 ± 0.059 |
| FLGEAHFI | 0.078 ± 0.4 |
| TTMYARFIFIVRDSEGMYCS | 7.089 ± 0.064 |

| Substance | amyloid nucleation score |
| --- | --- |
| VMLHPSNSLALNCLT | -0.297 ± 0.28 |
| YYKKTVVPYRLYAGLELIAT | -0.607 ± 0.48 |
| TIKTALMYIMRYSFRSYRDF | -1.02 ± 0.61 |
| GTLPA | -0.747 ± 0.48 |
| RCLTELTNETNYVGAG | 0.405 ± 0.3 |
| VDRIESVSYLYSHDYNESGP | -0.212 ± 0.53 |
| HAAGSLHMDYLV | 0.122 ± 1.1 |
| MITDGGASVGLNYRYS | -0.524 ± 0.33 |
| PCNTVLASPRYHVGGIYNLK | -0.727 ± 0.78 |
| KDSITAWCFVVLSVMTRVEY | -0.733 ± 1.1 |
| CFLCMQSLS | 1.34 ± 0.33 |
| CKSEYIWYPKFAMGSFDPSQ | inactive |
| SSFWFSGAADINRVVLRGIE | -0.175 ± 0.32 |
| LLGGHYP | 0.844 ± 0.52 |
| PRGLATRPLFNRVYLHWYLL | -0.639 ± 0.61 |
| SSTSLLNLPCWDRIFHTVRL | -0.429 ± 0.42 |
| NINNFLSISIFNGYASHVNC | inactive |
| KKSHFLKRYNTAYVGRHLVH | -0.07 ± 0.53 |
| KALQNSDGVGTRNLQTRHGY | 1.75 ± 0.29 |
| VSSTSLNSKDQWCCCERGSP | 0.619 ± 0.64 |
| HKGCIIVWKTKRGLCRSARC | -0.384 ± 0.79 |
| IGRSMGRTFWR | 1.5 ± 0.18 |
| FWSSCSLEVYRGFSFAH | 3 ± 0.083 |
| FLLDCN | 2.56 ± 0.15 |
| VKYYQGIGVWSKVWIMFD | 0.7 ± 0.42 |

| Substance | amyloid nucleation score |
| --- | --- |
| YEPRSNLCCIINTIKFPKTI | 6.169 ± 0.031 |
| SLPIWVRSRVEGLQERISWL | 0.364 ± 0.5 |
| EGWTWGGRLNKAQILTECVL | 1.49 ± 0.38 |
| FKDSDVEEWLNVKIIYWGVC | -0.604 ± 0.41 |
| HTTDEISAS | 1.09 ± 0.36 |
| DESWETIFLYKCRGQNW | -0.213 ± 1.1 |
| ADSCKVMKWDRRPLEDFNWC | -0.041 ± 0.19 |
| VYQYICFRVYGVVHWVGSSA | 1.4 ± 0.28 |
| CSRIHMRIARSSLF | 1.18 ± 0.39 |
| PMMSIAMCVSSTPLRYFRVR | 2 ± 0.12 |
| LQVRLDTRR | 0.043 ± 0.5 |
| RNAEA | -0.5 ± 0.63 |
| HCMLEYRMIVCVLVYAGYNM | 0.448 ± 0.47 |
| LRSVKMIRCLNSSLPLNGRG | 0.735 ± 0.12 |
| FEFTTCQGDRRSCFDGWGGN | 2.19 ± 0.15 |
| MSFNGCFDRMRREDRYEI | 0.16 ± 0.65 |
| ISTTFV | 0.192 ± 0.79 |
| SCGRMMTVVMIWGNWRSWSS | -0.439 ± 0.76 |
| ITLGLQLCGFNCMTGLVRWS | -0.079 ± 0.76 |
| KFSHQVEILPSGTSIGSCER | -0.111 ± 0.63 |
| GLGAWFEI | 0.485 ± 0.29 |
| SSNALKGDGSFGQNEVESAK | -0.043 ± 0.32 |
| IEKSMLVVLGINVRVSMGVG | 0.175 ± 0.24 |
| SIIGVYLCFLSFRTNVLWKT | -0.122 ± 0.27 |
| TKYDLHPMIVSFECDRHLMW | 0.411 ± 0.49 |

| Substance | amyloid nucleation score |
| --- | --- |
| STMLWLCFFMGKLSVDTVFE | -0.6 ± 0.53 |
| HRTLMIVKLCKRSGPFIL | -1.22 ± 0.42 |
| REEYCSFTICWSLDALHDRG | 0.527 ± 0.65 |
| GAAFILSIYYQPSTTPPLRA | 2.62 ± 0.084 |
| SPQLTIYPRMYSRSLVLNRC | 0.078 ± 0.77 |
| SHGFFMAVEGLNCVRFVIIL | inactive |
| IGFDFRTA | 0.418 ± 0.62 |
| PTRDKVATEGHGNGLIYNRF | 0.306 ± 0.65 |
| VWWFIYVLGVVSTDAKVSPS | inactive |
| NLNFPMRSSILDCAGDNVRR | 0.49 ± 0.8 |
| CCYVHWILGAGDREGRLWRQ | 3.86 ± 0.13 |
| LRCFSHRPCPKNNIVF | 0.602 ± 0.81 |
| YKMPK | 0.443 ± 0.8 |
| MWVDQMVFKRPGYCRSGMYL | 4.78 ± 0.049 |
| NRAFLMSYAPRRHFGAMSKA | 3.51 ± 0.073 |
| SMYSVYSFYTEIGTL | -0.441 ± 0.48 |
| NMLWASMYH | -0.546 ± 0.42 |
| MPHLVVTNAPGVSIRVGSDW | -0.888 ± 0.78 |
| TFLSSC | 0.096 ± 0.32 |
| NMDYDIKEQFLSRVPSPRES | -0.95 ± 0.78 |
| CAISM | 4.271 ± 0.039 |
| LANNSERMAAQDEVYSNCRM | -0.506 ± 0.24 |
| AYYALCL | -0.92 ± 1.1 |
| TLTRGSISSIVDASWNMEKT | -0.061 ± 0.46 |
| SCDIRRSLVSRAQICVCIVM | 7.534 ± 0.071 |

| Substance | amyloid nucleation score |
| --- | --- |
| IMSSVELWENHYCGDVCMIV | 7.908 ± 0.049 |
| YRCSDLYK | 2.47 ± 0.29 |
| MYTLYS | inactive |
| SLRWL | -0.18 ± 0.74 |
| PPRKTIELCSTQP | 0.7 ± 0.35 |
| QFHFWMQRMMFPLEFVIWVW | 1.33 ± 0.34 |
| ILYGVLTPYFHAVI | -0.003 ± 0.65 |
| FFDYLANFCLSKHGNNNYPF | -0.97 ± 1.1 |
| VNVIFHEYNVDAG | 4.02 ± 0.12 |
| EFCMEDQSMSLLWDYY | -0.183 ± 1 |
| GVPCRWTVPNANGSSVWSLR | 0.776 ± 0.3 |
| YIIIYLTRHTGVRDVYVSGG | -0.79 ± 1 |
| DLVMVSVSADVHSSNS | 0.163 ± 0.5 |
| TSMVNSFYKTRGTIK | inactive |
| NHLGLTDCTFQGLDSG | -1.09 ± 1.1 |
| NSINRMVVQLVG | 3.9 ± 0.087 |
| HNRISQRRLRLGLRGHWSRK | 0.691 ± 0.53 |
| EVLGLV | -0.841 ± 0.64 |
| YISVCSYCH | 4.9 ± 0.056 |
| LSGAPRLILRVNLWDTFDVQ | 4 ± 0.046 |
| QLYLTVTNGFVRCTTASDVL | 1.14 ± 0.47 |
| DSFLTLTCGFRSNALYCWGV | -0.663 ± 0.55 |
| KFASVYWLGLFPLLMPTVVS | 0.89 ± 0.43 |
| IFASSYVLSHYILGGHRSRK | 2.7 ± 0.1 |
| SPPLYARHCYILERITTDRM | -1.73 ± 0.62 |

| Substance | amyloid nucleation score |
| --- | --- |
| YVRKVKA | 0.276 ± 1 |
| YNRLMVGRPRLQHLSL | -1.51 ± 0.39 |
| NPLYEARKRNRLYTFGATRF | 3.65 ± 0.084 |
| GNFMTECLQARICGPDGEKK | 5.12 ± 0.095 |
| CGGAGRMLWGLADSNAALEA | 0.163 ± 0.63 |
| IPYLNFDLYWLPVI | -0.792 ± 0.48 |
| KVNKCIIRQLDLNMPLASRW | 0.584 ± 0.46 |
| TPATVEYGDNCVYDY | -0.987 ± 0.44 |
| ILIWVVNLYAYVNYFM | 3.1 ± 0.062 |
| LSSHPLGLGHTMGHRKF | 0.985 ± 0.48 |
| YHGYLPD | -0.826 ± 0.63 |
| YISGQWCLMCRRRGISACVR | -0.182 ± 0.55 |
| LHSATNG | 0.208 ± 0.37 |
| GTGLNKHNNSC | 0.36 ± 0.19 |
| TTVKYG | 0.553 ± 0.22 |
| IFFFWVLMRYW | -0.689 ± 0.55 |
| VLVCSANRLCNEPTIDRVLG | 4.14 ± 0.057 |
| EFMYGKTARGWFLALTARIF | inactive |
| LGHHIVFAVTPKWTYDDDIK | 0.679 ± 0.62 |
| HKGYCVRIIT | -0.335 ± 0.26 |
| GELDGNRERILRRRGTMDYQ | 2.56 ± 0.091 |
| SATFWLFVGVENVADMSKVG | 0.261 ± 0.4 |
| NIRSHKGIVLVG | inactive |
| SELLRTLGALSFYMYSFIKH | -1.98 ± 0.54 |
| TTFILNMMLYNSCTYVYMSL | 8.549 ± 0.073 |

| Substance | amyloid nucleation score |
| --- | --- |
| FRGLYRARNGVIKRMGLGWH | 0.645 ± 0.47 |
| YMKNSGHDMASLRNIYLIFR | 5.15 ± 0.075 |
| NCKWCNT | 0.996 ± 0.29 |
| LGLCHMLLSDAGWRVRCRGK | 0.276 ± 1 |
| HWLNLCP | -0.512 ± 0.48 |
| LRYLGWLACDYKTVGRSVTR | 0.978 ± 0.74 |
| CKCSAAIDVRDYVS | -0.02 ± 1.1 |
| CSRRNRRIGVALRFIFLDIY | -0.956 ± 0.78 |
| SSYNSGLRLLSFTCCV | 9.355 ± 0.052 |
| FWSTTDILVGRTSHTGTVCV | 0.118 ± 0.26 |
| PTMYWFPPETATSPPYGPPG | 3.54 ± 0.1 |
| YWFARCHFSPAMRIYYRTRA | -0.171 ± 0.62 |
| ASLTASAGVVFFYTPTRRYN | 3.16 ± 0.14 |
| INFMAVDDKPRVVVEPCPSA | 0.623 ± 0.62 |
| VLGLKKSADYKS | -0.556 ± 0.74 |
| VTNYVEFCTGFRICGVSLPC | 8.387 ± 0.036 |
| YVLKLRRSRQSLSHRPALLY | inactive |
| SLEDCYCDRVI | -0.528 ± 0.34 |
| TNDHQFCESNMRVMSEGIGP | -0.284 ± 1.1 |
| AVLLPNWSAYSGKNTSYVPV | 2.13 ± 0.1 |
| FVSHYHTAHTVEMASSQLTN | 0.503 ± 0.38 |
| IQCTCTPDYPVLSLSVMVNF | 8.361 ± 0.078 |
| DTSVMCFGTYTWLFELFFQW | -0.334 ± 0.45 |
